Measurements from US20040248211A1, “ICAM-related protein” (priority 1992, published 2004).

Experiments:
[1] = tested on: ICAM-R peptides; assay: Multipin peptide ELISA; assay type: binding, human; details: hybridoma supernatant
Experimental: The first method for mapping linear epitopes recognized by the ICAM-R specific antibodies of the invention utilized the Multipin Peptide Synthesis System (Chiron Mimotopes Pty. Ltd., Victoria, Australia) which places ten amino acid peptides representing overlapping segments of the protein of interest on the surface of a series of plastic pins. A modified ELISA test is performed to determine binding of a monoclonal antibody to each peptide.
The ELISA to determine binding of the monoclonal antibodies to ICAM-R peptides was run as follows. […] The pins were transferred to plates containing ABTS substrate solution [0.5 mg/ml ABTS, 0.01% weight/volume H2O2 in substrate buffer (17.9 g/L Na2HPO4H2O, 16.8 g/L citric acid monohydrate, pH 4.0)] for 45 minutes at 20° C. with agitation and then the plates were read at 410/495 nm.
Relative reactivity with individual pins was determined after normalizing results for differences in immunoglobulin concentrations in anti-ICAM-R and control hybridoma supernatants and reactivities of positive controls between assays. Mouse IgG levels for each supernatant had been determined by antibody capture ELISA as follows. […] Antibody concentrations of culture supernatant were determined by fitting measured optical densities to the standard curve of the isotype matched control.

[2] = tested on: SKW3 T cells; assay: Homotypic aggregation assay, SKW3; assay type: cell-based, human; details: after four hours, Ig and Fab′ at 1 μg/ml
Experimental: Aggregation assays were done in duplicate, with and without addition of PMA (50 ng/ml). 3×10^5 cells in RPMI 1640 medium with 10% fetal calf serum were added in a flat-bottomed 96-well microtest plate. When one antibody was tested in an experiment, 50 μl of purified antibody or hybridoma supernatant were added to the wells (PMA was added at the same time to selected wells). When two antibodies were tested in the same experiment, the antibodies were added sequentially to the cells at room temperature and incubated for 30 minutes each (incubation for 15 minutes at 37° C. produced the same results), and then the cells were incubated at 37° C. […] After incubation with the antibody or antibodies, cells were uniformly resuspended and then incubated at 37° C. for 4 to 24 hours. Aggregation scoring was done with an inverted microscope. In each experiment, the efficacy of the PMA stimulation was checked in parallel by stimulating Raji cells with an equal amount of PMA and determining the amount of aggregation blockable by monoclonal antibodies to CD18, CD11 a, and ICAM-1 molecules.
To confirm that aggregation was induced by the anti-ICAM-R antibodies ICR-2.1, ICR-1.1, and ICR-3.1 the aggregation assays were performed using both the whole immunoglobulin (ICR-1.1-Ig) and Fab′ fragments (ICR-1.1-Fab′) purified from the same anti-ICAM-R monoclonal antibody (ICR-1.1). […]

B1: ICR-1.1: anti-ICAM-R monoclonal antibody, IgG2a, domain 1, ATCC HB 11053 (antibody, V domains shown)
VH: QVQLQQSGAELAKPGASVKMSCKASGYTFTVYWMHWVKQRPGQGLEWIGYINPNTDYTEYNQRFQDKATLTADKSSSTAYMQLSSLTSEDSAVYYCARWGGNSYGLDYWGQGTSVTVSS
VL: QIVLTQSPALMSASPGEKVTMTCSASSSVSYIYWYQQKPRSSPKPWIYLTSNLASGVPARFSGSGSGASYSLTISIMEAEDAATYYCQQWKSIPLTFGAGTKLELK
Q: How did the “reactivity with overlapping ten amino acid ICAM-R peptides” value [1] turn out when B1 was run?
A: Its value is “two overlapping peptides spanning amino acids 13-23”.

Q: And the Aggregation [2]?
A: The Aggregation was 3 (50 to 100% cells were in loose clusters).
